Here are results for two molecules from patent US20190153406A1 (PEKING UNIVERSITY, published 2019).

Substitutions are numbered along the chain they refer to. Numbers in names are those of the source.

Assay [1] has as its target T1, rat insulin receptor substrate IRS1 (rat, UniProt P35570 1-1235, limits assumed).
T1 construct: The legend says Rat IRS1; also called Rat IRS1
T1 sequence (looked up): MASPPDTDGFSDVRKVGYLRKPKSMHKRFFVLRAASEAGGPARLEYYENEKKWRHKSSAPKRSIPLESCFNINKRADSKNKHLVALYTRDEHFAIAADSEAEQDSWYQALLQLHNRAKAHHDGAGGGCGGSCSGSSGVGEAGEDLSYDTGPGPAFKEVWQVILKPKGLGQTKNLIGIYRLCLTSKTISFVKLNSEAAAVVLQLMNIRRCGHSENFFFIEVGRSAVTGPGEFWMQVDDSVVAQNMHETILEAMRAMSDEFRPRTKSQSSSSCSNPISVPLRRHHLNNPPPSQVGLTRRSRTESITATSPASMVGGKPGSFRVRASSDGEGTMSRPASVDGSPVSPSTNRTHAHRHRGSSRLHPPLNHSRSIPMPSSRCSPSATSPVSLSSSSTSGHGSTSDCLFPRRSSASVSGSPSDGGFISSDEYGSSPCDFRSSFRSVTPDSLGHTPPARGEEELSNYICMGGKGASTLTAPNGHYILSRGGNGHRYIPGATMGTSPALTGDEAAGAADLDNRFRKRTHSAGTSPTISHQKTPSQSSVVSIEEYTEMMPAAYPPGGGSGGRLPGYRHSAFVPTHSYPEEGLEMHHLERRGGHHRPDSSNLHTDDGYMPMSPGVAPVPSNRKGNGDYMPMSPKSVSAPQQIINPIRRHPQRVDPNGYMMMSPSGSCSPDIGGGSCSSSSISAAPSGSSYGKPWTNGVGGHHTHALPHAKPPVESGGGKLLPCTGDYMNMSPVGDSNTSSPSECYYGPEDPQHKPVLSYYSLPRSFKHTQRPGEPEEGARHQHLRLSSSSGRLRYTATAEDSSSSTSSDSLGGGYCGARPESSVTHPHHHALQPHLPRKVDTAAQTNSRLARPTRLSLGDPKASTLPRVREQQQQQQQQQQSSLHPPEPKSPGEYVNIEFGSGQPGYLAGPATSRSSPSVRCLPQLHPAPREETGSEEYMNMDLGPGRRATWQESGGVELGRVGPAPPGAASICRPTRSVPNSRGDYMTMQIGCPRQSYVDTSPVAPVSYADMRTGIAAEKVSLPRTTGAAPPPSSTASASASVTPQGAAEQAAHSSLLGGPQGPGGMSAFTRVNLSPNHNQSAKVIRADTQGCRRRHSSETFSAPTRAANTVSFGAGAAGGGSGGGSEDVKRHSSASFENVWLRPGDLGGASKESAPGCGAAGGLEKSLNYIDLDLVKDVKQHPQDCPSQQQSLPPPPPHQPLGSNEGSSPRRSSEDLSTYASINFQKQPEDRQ
Kind of assay: SPR, purified IRS1 immobilized, purified MG53 in mobile phase. A general note: In SPR one partner is held on a chip, and binding of the other changes the refractive index at the surface.

The target in assay [2] is T1, rat insulin receptor substrate IRS1. Kind of assay: SPR, Rat IRS1 immobilized (500 RU), MG53-S255A in the mobile phase [lower panel].

B1: mouse wild-type MG53 (enzyme)
chain: MSAAPGLLRQELSCPLCLQLFDAPVTAECGHSFCRACLIRVAGEPAADGTVACPCCQAPTRPQALSTNLQLSRLVEGLAQVPQGHCEEHLDPLSIYCEQDRTLVCGVCASLGSHRGHRLLPAAEAQARLKTQLPQQKMQLQEACMRKEKTVAVLEHQLVEVEETVRQFRGAVGEQLGKMRMFLAALESSLDREAERVRGDAGVALRRELSSLNSYLEQLRQMEKVLEEVADKPQTEFLMKFCLVTSRLQKILSESPPPARLDIQLPVISDDFKFQVWKKMFRALMPALEELTFDPSSAHPSLVVSSSGRRVECSDQKAPPAGEDTRQFDKAVAVVAQQLLSQGEHYWEVEVGDKPRWALGVMAADASRRGRLHAVPSQGLWLLGLRDGKILEAHVEAKEPRALRTPERPPARIGLYLSFADGVLAFYDASNPDVLTPIFSFHERLPGPVYPIFDVCWHDKGKNAQPLLLVGPEQEQA
notes: Expressed from a plasmid in HEK293T cells for co-IP and degradation assays; purified protein in the mobile phase for SPR; also called TRIM72; Mitsugumin 53
Turning to B1, binding in assay [1] was put at a Kd of 64.2 nM.

B2: mouse MG53 S255A mutant (enzyme)
chain: B1 chain with S255A
On to B2, for which, in assay [2], the binding result is reported as “no binding (tested: 1000 nM)”.
